According to patent US6133008:

Tested on: TfiI-s (N-terminally shortened TfiI) lacks first 12 amino acids; translation presumed to start at TTG codon (Thermus filiformis)
Experiment: cleavage_in_vitro
Details: cell lysate; lambda DNA substrate

lambda DNA
activity (units/g wet cells): 100000
